Measured values as given in patent US20180273635A1 (Zymeworks, published 2018).

Legend:
Recombinant human HER2 [1] = molecular target: T1, Recombinant human HER2 (human, UniProt P04626 23-652); assay: SPR, pre-SEC; ratio to WT v10013;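 note: SPR on Biacore T200 at 25 °C, constructs captured via anti-human Fc on CM5 chip, HER2 ECD as analyte, 1:1 Langmuir global fit, after protein A purification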
T1 construct: extracellular domain; analyte of the SPR assays; also called HER2 ECD; ECD2 of HER2
Experimental: (§1) The affinity towards HER2 ECD of the samples was measured by SPR on a Biacore T200 as follows. Between 2000 and 4000 RU of anti-human Fc injected at concentration between 5 and 10 μg/ml was immobilized on a CM5 chip using standard amine coupling. Antigen-binding constructs were captured on the anti-human Fc (injected at concentration at 0.51 microg/mL in PBST, 1 min at 10 microl/min) at response levels ranging from 120-270 RU. […] HER2 dilutions were analyzed in duplicates. Sensograms were fit globally to a 1: 1 Langmuir binding model, using the software provided with the Biacore T200. All experiments were conducted at 25° C.
(§2) The affinity of antigen-binding constructs in OA format was determined by SPR following protein A purification. […] Antigen-binding constructs in FSA format were purified by protein A affinity and SEC prior to assessment of affinity by SPR.

Recombinant human HER2 [2] = molecular target: T1, Recombinant human HER2; assay: SPR, variant captured on anti-human Fc, HER2 flowed, 25 C, pre-SEC;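 note: HER2 extracellular domain binding on Biacore T200, CM5 chip with amine-coupled anti-human Fc, duplicate antigen dilutions, global 1:1 Langmuir fit, measured after protein A purification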
Experimental: as §1, §2

Recombinant human HER2 [3] = molecular target: T2, Recombinant human HER2 (human, UniProt P04626 23-652); assay: calculated from the SPR Ka ratio to WT v10013;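 note: SPR at 25 °C with constructs captured on an anti-human Fc chip and HER2 extracellular domain as analyte, kinetics fitted to a 1:1 Langmuir model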
T2 construct: extracellular domain; Analyte of the SPR assays; also called HER2 ECD; ECD2 of HER2

Recombinant human HER2 [4] = molecular target: T2, Recombinant human HER2; assay: SPR, Biacore T200, 25 C; variant captured on anti-human Fc, HER2 flowed;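 note: HER2 extracellular domain analyte run as duplicate dilutions over amine-coupled anti-Fc on a CM5 chip, rates from global sensorgram fitting with a 1:1 Langmuir model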
Experimental: as §1

Recombinant human HER2 [5] = molecular target: T2, Recombinant human HER2; assay: SPR, 25 C; Ka ratio to WT v10013;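 note: constructs captured via anti-human Fc on CM5 chip, HER2 ECD as analyte in duplicate dilutions, sensorgrams globally fit to 1:1 Langmuir model on Biacore T200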
Experimental: as §1

| Binder | Ka, mut/Ka, WT (Recombinant human HER2 [1]) | Kd (Recombinant human HER2 [2]) [nM] | ΔΔG (Recombinant human HER2 [3]) [kcal/mol] | Kd (Recombinant human HER2 [4]) [nM] | koff (Recombinant human HER2 [4]) [s⁻¹] | kon (Recombinant human HER2 [4]) [M⁻¹ s⁻¹] | Ka, mut/Ka, WT (Recombinant human HER2 [5]) [fold] |
| --- | --- | --- | --- | --- | --- | --- | --- |
| variant 14067 (antibody, human IgG1, kappa, OA pertuzumab variant, HC K75Y (Kabat); also called v14067) heavy: EVQLVESGGGLVQPGGSLRLSCAASGFTFTDYTMDWVRQAPGKGLEWVADVNPNSGGSIYNQRFKGRFTLSVDRSYNTLYLQMNSLRAEDTAVYYCARNLGPSFYFDYWGQGTLVTVSSASTKGPSVFPLAPSSKSTSGGTAALGCLVKDYFPEPVTVSWNSGALTSGVHTFPAVLQSSGLYSLSSVVTVPSSSLGTQTYICNVNHKPSNTKVDKKVEPKSCDKTHTCPPCPAPELLGGPSVFLFPPKPKDTLMISRTPEVTCVVVDVSHEDPEVKFNWYVDGVEVHNAKTKPREEQYNSTYRVVSVLTVLHQDWLNGKEYKCKVSNKALPAPIEKTISKAKGQPREPQVYVYPPSRDELTKNQVSLTCLVKGFYPSDIAVEWESNGQPENNYKTTPPVLDSDGSFALVSKLTVDKSRWQQGNVFSCSVMHEALHNHYTQKSLSLSPG light: not shown not shown | 18 | 0.94 | – | – | – | – | – |
| Variant 14028 (antibody, human IgG1, kappa, OA (one-armed) format; clones 8776, 1811, 4372; also called v14028) heavy: EVQLVESGGGLVQPGGSLRLSCAASGFTFYDYTMDWVRQAPGKGLEWVADVNPNSGGSIYNQRFKGRFTLSVDRSWNTLYLQMNSLRAEDTAVYYCARNLGPSFYFDYWGQGTLVTVSSASTKGPSVFPLAPSSKSTSGGTAALGCLVKDYFPEPVTVSWNSGALTSGVHTFPAVLQSSGLYSLSSVVTVPSSSLGTQTYICNVNHKPSNTKVDKKVEPKSCDKTHTCPPCPAPELLGGPSVFLFPPKPKDTLMISRTPEVTCVVVDVSHEDPEVKFNWYVDGVEVHNAKTKPREEQYNSTYRVVSVLTVLHQDWLNGKEYKCKVSNKALPAPIEKTISKAKGQPREPQVYVYPPSRDELTKNQVSLTCLVKGFYPSDIAVEWESNGQPENNYKTTPPVLDSDGSFALVSKLTVDKSRWQQGNVFSCSVMHEALHNHYTQKSLSLSPG light: not shown not shown | – | – | -2.5 | ~0.25 | ~1.7e-05 | 68000 | ~67 |
| Variant 14026 (antibody, human IgG1, kappa, OA (one-armed) format; clones 8774, 1811, 4372; also called v14026) heavy: EVQLVESGGGLVQPGGSLRLSCAASGFTFTDYTMDWVRQAPGKGLEWVADVNPNSGGSIYNQRFKGRFTLSVDRSWNTLYLQMNSLRAEDTAVYYCARNLGPWFYFDYWGQGTLVTVSSASTKGPSVFPLAPSSKSTSGGTAALGCLVKDYFPEPVTVSWNSGALTSGVHTFPAVLQSSGLYSLSSVVTVPSSSLGTQTYICNVNHKPSNTKVDKKVEPKSCDKTHTCPPCPAPELLGGPSVFLFPPKPKDTLMISRTPEVTCVVVDVSHEDPEVKFNWYVDGVEVHNAKTKPREEQYNSTYRVVSVLTVLHQDWLNGKEYKCKVSNKALPAPIEKTISKAKGQPREPQVYVYPPSRDELTKNQVSLTCLVKGFYPSDIAVEWESNGQPENNYKTTPPVLDSDGSFALVSKLTVDKSRWQQGNVFSCSVMHEALHNHYTQKSLSLSPG light: not shown not shown | – | – | -2.4 | ~0.29 | ~2.7e-05 | 91000 | ~57 |
| Variant 14031 (antibody, human IgG1, kappa, OA (one-armed) format; clones 8778, 1811, 4372; also called v14031) heavy: EVQLVESGGGLVQPGGSLRLSCAASGFTFQDYTMDWVRQAPGKGLEWVADVNPNSGGSIYNQRFKGRFTLSVDRWKNTLYLQMNSLRAEDTAVYYCARNLGPSFYFDYWGQGTLVTVSSASTKGPSVFPLAPSSKSTSGGTAALGCLVKDYFPEPVTVSWNSGALTSGVHTFPAVLQSSGLYSLSSVVTVPSSSLGTQTYICNVNHKPSNTKVDKKVEPKSCDKTHTCPPCPAPELLGGPSVFLFPPKPKDTLMISRTPEVTCVVVDVSHEDPEVKFNWYVDGVEVHNAKTKPREEQYNSTYRVVSVLTVLHQDWLNGKEYKCKVSNKALPAPIEKTISKAKGQPREPQVYVYPPSRDELTKNQVSLTCLVKGFYPSDIAVEWESNGQPENNYKTTPPVLDSDGSFALVSKLTVDKSRWQQGNVFSCSVMHEALHNHYTQKSLSLSPG light: not shown not shown | – | – | -1.2 | 2 | 9.9e-05 | 49000 | 8 |
| Variant 14027 (antibody, human IgG1, kappa, OA (one-armed) format; clones 7844, 7917, 4372; also called v14027) heavy: EVQLVESGGGLVQPGGSLRLSCAASGFTFTDYTMDWVRQAPGKGLEWVADVNPNSGGSIYNQRFKGRFTLSVDRSWNTLYLQMNSLRAEDTAVYYCARNLGPSFYFDYWGQGTLVTVSSASTKGPSVFPLAPSSKSTSGGTAALGCLVKDYFPEPVTVSWNSGALTSGVHTFPAVLQSSGLYSLSSVVTVPSSSLGTQTYICNVNHKPSNTKVDKKVEPKSCDKTHTCPPCPAPELLGGPSVFLFPPKPKDTLMISRTPEVTCVVVDVSHEDPEVKFNWYVDGVEVHNAKTKPREEQYNSTYRVVSVLTVLHQDWLNGKEYKCKVSNKALPAPIEKTISKAKGQPREPQVYVYPPSRDELTKNQVSLTCLVKGFYPSDIAVEWESNGQPENNYKTTPPVLDSDGSFALVSKLTVDKSRWQQGNVFSCSVMHEALHNHYTQKSLSLSPG light: not shown not shown | – | – | -3 | ~0.1 | ~9e-06 | 88000 | ~164 |
| Variant 14033 (antibody, human IgG1, kappa, OA (one-armed) format; clones 8779, 1811, 4372; also called v14033) heavy: EVQLVESGGGLVQPGGSLRLSCAASGFTFTDYTMDWVRQAPGKGLEWVADVNPNSGGSIYNQRFKGRFTLSVDRWENTLYLQMNSLRAEDTAVYYCARNLGPSFYFDYWGQGTLVTVSSASTKGPSVFPLAPSSKSTSGGTAALGCLVKDYFPEPVTVSWNSGALTSGVHTFPAVLQSSGLYSLSSVVTVPSSSLGTQTYICNVNHKPSNTKVDKKVEPKSCDKTHTCPPCPAPELLGGPSVFLFPPKPKDTLMISRTPEVTCVVVDVSHEDPEVKFNWYVDGVEVHNAKTKPREEQYNSTYRVVSVLTVLHQDWLNGKEYKCKVSNKALPAPIEKTISKAKGQPREPQVYVYPPSRDELTKNQVSLTCLVKGFYPSDIAVEWESNGQPENNYKTTPPVLDSDGSFALVSKLTVDKSRWQQGNVFSCSVMHEALHNHYTQKSLSLSPG light: not shown not shown | – | – | -1.4 | 1.7 | 9.9e-05 | 59000 | 10 |
| Variant 14030 (antibody, human IgG1, kappa, OA (one-armed) format; clones 7840, 7919, 4372; also called v14030) heavy: EVQLVESGGGLVQPGGSLRLSCAASGFTFTDYTMDWVRQAPGKGLEWVADVNPNSGGSIYNQRFKGRFTLSVDRWKNTLYLQMNSLRAEDTAVYYCARNLGPSFYFDYWGQGTLVTVSSASTKGPSVFPLAPSSKSTSGGTAALGCLVKDYFPEPVTVSWNSGALTSGVHTFPAVLQSSGLYSLSSVVTVPSSSLGTQTYICNVNHKPSNTKVDKKVEPKSCDKTHTCPPCPAPELLGGPSVFLFPPKPKDTLMISRTPEVTCVVVDVSHEDPEVKFNWYVDGVEVHNAKTKPREEQYNSTYRVVSVLTVLHQDWLNGKEYKCKVSNKALPAPIEKTISKAKGQPREPQVYVYPPSRDELTKNQVSLTCLVKGFYPSDIAVEWESNGQPENNYKTTPPVLDSDGSFALVSKLTVDKSRWQQGNVFSCSVMHEALHNHYTQKSLSLSPG light: not shown not shown | – | – | -1.5 | 1.3 | 8e-05 | 63000 | 13 |
| Variant 14029 (antibody, human IgG1, kappa, OA (one-armed) format; clones 8777, 1811, 4372; also called v14029) heavy: EVQLVESGGGLVQPGGSLRLSCAASGFTFTDYTMDWVRQAPGKGLEWVADVNPNSGYSIYNQRFKGRFTLSVDRSWNTLYLQMNSLRAEDTAVYYCARNLGPSFYFDYWGQGTLVTVSSASTKGPSVFPLAPSSKSTSGGTAALGCLVKDYFPEPVTVSWNSGALTSGVHTFPAVLQSSGLYSLSSVVTVPSSSLGTQTYICNVNHKPSNTKVDKKVEPKSCDKTHTCPPCPAPELLGGPSVFLFPPKPKDTLMISRTPEVTCVVVDVSHEDPEVKFNWYVDGVEVHNAKTKPREEQYNSTYRVVSVLTVLHQDWLNGKEYKCKVSNKALPAPIEKTISKAKGQPREPQVYVYPPSRDELTKNQVSLTCLVKGFYPSDIAVEWESNGQPENNYKTTPPVLDSDGSFALVSKLTVDKSRWQQGNVFSCSVMHEALHNHYTQKSLSLSPG light: not shown not shown | – | – | -2.6 | ~0.21 | ~2e-05 | 95000 | ~81 |
